This passage reports Km results from patent publication US20040235098A1, “Sulfotransferase sequence variants” (Mayo Foundation for Medical Education and Research, a …, priority 1998, published 2004).

Where a chain is given by its changes, count along the chain named. Names may count otherwise.

What all share (assay type): biochemical, human
Substrate in series [1]: O=[N+]([O-])c1ccc(O)cc1
Nature of the series: Substrate kinetics of recombinant SULT1A1*3. The note with it: other: recombinant SULT1A1*3; 0.02 to 5.0 μM 4-nitrophenol; mean±SEM of nine.

Substrate in series [2]: O=[N+]([O-])c1ccc(O)cc1
The experiment in a line: Substrate kinetics of recombinant SULT1A1*1. The conditions noted are these: other: recombinant SULT1A1*1; 0.02 to 5.0 μM 4-nitrophenol; mean±SEM of nine.

Substrate in series [3]: O=[N+]([O-])c1ccc(O)cc1
The experiment in a line: Substrate kinetics of recombinant SULT1A2*1. The note with it: other: recombinant SULT1A2*1; 0.08 to 10.0 μM 4-nitrophenol; mean±SEM of nine.

Substrate in series [4]: O=[N+]([O-])c1ccc(O)cc1
The experiment in a line: Substrate kinetics of recombinant SULT1A2*2. The conditions noted are these: other: recombinant SULT1A2*2; 1.0 to 1000 μM 4-nitrophenol; mean±SEM of nine.

Substrate in series [5]: O=[N+]([O-])c1ccc(O)cc1
The experiment in a line: Substrate kinetics of recombinant SULT1A2*3. The note with it: other: recombinant SULT1A2*3; 0.08 to 10.0 μM 4-nitrophenol; mean±SEM of nine.

Substrate in series [6]: O=[N+]([O-])c1ccc(O)cc1
The experiment in a line: Substrate kinetics of recombinant SULT1A3. The conditions noted are these: other: recombinant SULT1A3; 3.9 to 3000 μM 4-nitrophenol; mean±SEM of nine.

B1: SULT1A1*3 (Homo sapiens) (protein)
chain: MELIQDTSRPPLEYVKGVPLIKYFAEALGPLQSFQARPDDLLISTYPKSGTTWVSQILDMIYQGGDLEKCHRAPIFMRVPFLEFKAPGIPSGMETLKDTPAPRLLKTHLPLALLPQTLLDQKVKVVYVARNAKDVAVSYYHFYHMAKVHPEPGTWDSFLEKFMVGEVSYGSWYQHVQEWWELSRTHPVLYLFYEDMKENPKREIQKILEFVGRSLPEETVDFVVQHTSFKEMKKNPMTNYTTVPQEFMDHSISPFMRKGMAGDWKTTFTVAQNERFDADYAEKMAGCSLSFRSEL
notes: made in house; host or cells: COS-1 cells, pCR3.1 vector, unpurified cytosol
Consider B1, for which the Km in series [1] was 0.31 ± 0.01 µM.

B2: SULT1A1*1 (Homo sapiens) (protein)
chain: B1 chain
notes: as for B1
Consider B2, for which the Km in series [2] was found to be 0.88 ± 0.07 µM.

B3: SULT1A2*1 (Homo sapiens) (protein)
chain: MELIQDISRPPLEYVKGVPLIKYFAEALGPLQSFQARPDDLLISTYPKSGTTWVSQILDMIYQGGDLEKCHRAPIFMRVPFLEFKVPGIPSGMETLKNTPAPRLLKTHLPLALLPQTLLDQKVKVVYVARNAKDVAVSYYHFYHMAKVYPHPGTWESFLEKFMAGEVSYGSWYQHVQEWWELSRTHPVLYLFYEDMKENPKREIQKILEFVGRSLPEETVDLMVEHTSFKEMKKNPMTNYTTVRREFMDHSISPFMRKGMAGDWKTTFTVAQNERFDADYAKKMAGCSLSFRSEL
notes: as for B1
As to B3, the Km in series [3] amounted to 8.70 ± 1.10 µM.

B4: SULT1A2*2 (Homo sapiens; I7T/N235T) (protein)
chain: B3 chain with I7T, N235T
notes: as for B1
Consider B4, for which the Km in series [4] worked out at 373 ± 33 µM.

B5: SULT1A2*3 (Homo sapiens; P19L) (protein)
chain: B3 chain with P19L
notes: as for B1
Regarding B5, in series [5], the Km worked out at 5.65 ± 1.14 µM.

B6: SULT1A3 (Homo sapiens) (protein)
chain: MELIQDTSRPPLEYVKGVPLIKYFAEALGPLQSFQARPDDLLINTYPKSGTTWVSQILDMIYQGGDLEKCNRAPIYVRVPFLEVNDPGEPSGLETLKDTPPPRLIKSHLPLALLPQTLLDQKVKVVYVARNPKDVAVSYYHFHRMEKAHPEPGTWDSFLEKFMAGEVSYGSWYQHVQEWWELSRTHPVLYLFYEDMKENPKREIQKILEFVGRSLPEETMDFMVQHTSFKEMKKNPMTNYTTVPQELMDHSISPFMRKGMAGDWKTTFTVAQNERFDADYAEKMAGCSLSFRSEL
notes: as for B1
B6: in series [6], the Km is 4960 ± 810 µM.
